Results reported in patent US20220017615A1 (SHANGHAI PHARMAEXPLORER, published 2022).

B1: 25E3B5 (antibody, V domains shown)
VH: QVQLQQPGTALVRPGSSVKLSCKASGYTFTSYWMHWVRQRPIKGLEWIGNIDPSDSETHYNQRFKDKVTLTVDKSSNTAYMQLSSLTSEDSAVYYCARWKYHGIGAMDYWGQGTSVTVSS
VL: DVQITQSPSYLAASPGETVTISCRTNRNISKFLAWYQEKPGKTNKLLIYSGSTLHSGIPSRFSGSGSGTDFTLTISRLEPEDFAMYYCQQHNEYPWSFGGGTKLEIK
notes: Murine hybridoma antibody purified on protein G
B2: 4D10B11 (antibody, V domains shown)
VH: QVQLQQSGPELVKPGASVKISCKASGYSFTSYYIHWVKQRPGQGLEWIGWIYPGSGNTKYNEKFKGKATLTADTSSSTADMQLSSLTSEDSAVYYCARRGDWYFDVWGTGTTVTVSS
VL: DIVMSQSPSSLVVSVGEKVTMNCKSSQSLLFSGNQKSSLAWYQQKPGQSPKLLIYWASTRESGVPDRFTGSGSGTDFTLIISTVKAEDLAVYSCQQYYSYPLTFGAGTKLELK
notes: as for B1

Assays:
[1] = target: T1, cynomolgus CD47, on CHOK1-cCD47 stable cell line (cynomolgus); test: FACS CHOK1-cCD47; Ab 8 nM
T1 construct: whole, on cells; check before use; also called CHOK1/cynoCD47; monkey-derived CD47
Protocol: (§1) The CHOK1-hCD47 stable cell lines and CHOK1-cCD47 stable cell lines were expanded to 90% confluence in a T-75 cell culture flask, the medium was exhausted, washed twice with HBSS buffer (Hanks balanced salt solution) (purchased from Invitrogen), and then treated and collected with enzyme-free cell dissociation solution (Versene solution: purchased from Life technology). The cells were washed twice with HBSS buffer. After counted, the cells were diluted with HBSS to 2×10⁶ cells per ml, added with 1% goat serum blocking solution, wherein the percentage was the mass percantage, incubated on ice for 30 minutes, and then washed twice with HBSS by centrifugation. […] The plate was washed 3 times with FACS buffer by centrifugation, added with 100 μl fixative solution [4% (v/v) Paraformaldehyde] per well to suspend the cells. 10 minutes later, it was washed twice with FACS buffer by centrifugation. The cells were suspended with 100 microliters of FACS buffer, FACS (FACS Calibur, purchased from BD) was used for detection and the results were analyzed.

[2] = target: T1, cynomolgus CD47, on CHOK1-cCD47 stable …; test: FACS CHOK1-cCD47; Ab 0 nM (background)
Protocol: as §1

[3] = target: T2, human CD47, full length, on transfected cells (human, UniProt Q08722 19-323); test: FACS CHOK1-hCD47; Ab 0.0128 nM
T2 construct: whole, on cells; also called CHOK1-hCD47
Protocol: as §1

[4] = target: T3, biotin-labeled CD47 extracellular domain protein (CD47-ECD) (UniProt Q08722 19-139, limits assumed, biotin-labeled (sites not given)); test: blocking ELISA, biotin-CD47-ECD on coated SIRPα-hFc; Ab 1.6 nM
T3 construct: extracellular domain; also called CD47 protein

[5] = target: T2, human CD47, full length, on transfected …; test: FACS CHOK1-hCD47; Ab 40 nM
Protocol: as §1

[6] = target: T1, cynomolgus CD47, on CHOK1-cCD47 stable …; test: FACS CHOK1-cCD47; Ab 40 nM
Protocol: as §1

[7] = target: T4, His-tagged CD47 recombinant protein, CD47-His (human, UniProt Q08722 19-141, limits assumed); test: ELISA on coated CD47-His; Ab 0.021 nM
T4 construct: it is not restated for CD47-His; also called human CD47-His protein; antigen CD47-His; not shown: His tag

[8] = target: T3, biotin-labeled CD47 extracellular …; test: blocking ELISA, biotin-CD47-ECD on coated SIRPα-hFc; Ab 0.32 nM
Protocol: (§2) The plate was sealed with plastic film and incubated at 4° C. overnight. The plate was washed twice with plate washing solution [PBS+0.01% (v/v) Tween20] on the next day, and blocking solution [PBS+0.01% (v/v) Tween20 +1% (w/w) BSA] was added to block it at room temperature for 2 hours. […] After incubation at 37° C. for 2 hours, the plate was washed three times with the plate washing solution [PBS+0.01% (v/v) Tween 20]. HRP (horseradish peroxidase) labeled avidin diluent (purchased from Sigma) was added as 100 microliters per well, and after the plate was incubated for 2 hours at 37° C., it was washed 3 times with washing solution [PBS+0.01% (v/v) Tween 20]. 100 μl of TMB substrate was added to each well. After incubated at room temperature for 30 minutes, the plate was added with 100 μl of stop solution (1.0N HCl) to each well.

[9] = target: T4, His-tagged CD47 recombinant protein, …; test: ELISA on coated CD47-His; Ab 13.333 nM
Protocol: (§3) The plate was sealed with plastic film and incubated at 4° C. overnight. The plate was washed twice with plate washing solution [PBS+0.01% (v/v) Tween20] the next day, and blocking solution [PBS+0.01% (v/v) Tween20 +1% (w/w) BSA] was added to block it at room temperature for 2 hours. […] After incubation at 37° C. for 2 hours, the plates were washed three times with plate washing solution [PBS+0.01% (v/v) Tween 20]. HRP (horseradish peroxidase) labeled secondary antibody (purchased from Sigma) was added, incubated at 37° C. for 2 hours, and then washed three times with plate washing solution [PBS+0.01% (v/v) Tween 20]. 1000 of TMB substrate was added to each well. After incubated at room temperature for 30 minutes, the plate was added with 100 μl of stop solution (1.0N HCl) to each well.

[10] = target: T1, cynomolgus CD47, on CHOK1-cCD47 stable …; test: FACS CHOK1-cCD47; Ab 0.32 nM
[11] = target: T3, biotin-labeled CD47 extracellular …; test: blocking ELISA, biotin-CD47-ECD on coated SIRPα-hFc; Ab 0.0128 nM
Protocol: as §2

[12] = target: T3, biotin-labeled CD47 extracellular …; test: blocking ELISA, biotin-CD47-ECD on coated SIRPα-hFc; Ab 0.064 nM
Protocol: as §2

[13] = target: T4, His-tagged CD47 recombinant protein, …; test: ELISA on coated CD47-His; Ab 0.004 nM
[14] = target: T1, cynomolgus CD47, on CHOK1-cCD47 stable …; test: FACS CHOK1-cCD47; Ab 1.6 nM
[15] = target: T1, cynomolgus CD47, on CHOK1-cCD47 stable …; test: FACS CHOK1-cCD47; Ab 200 nM
Protocol: as §1

[16] = target: T3, biotin-labeled CD47 extracellular …; test: blocking ELISA, biotin-CD47-ECD on coated SIRPα-hFc; Ab 40 nM
Protocol: as §2

[17] = target: T1, cynomolgus CD47, on CHOK1-cCD47 stable …; test: FACS CHOK1-cCD47; Ab 0.0128 nM
Protocol: as §1

[18] = target: T4, His-tagged CD47 recombinant protein, …; test: ELISA on coated CD47-His; Ab 66.667 nM
[19] = target: T3, biotin-labeled CD47 extracellular …; test: blocking ELISA, biotin-CD47-ECD on coated SIRPα-hFc; Ab 0 nM
Protocol: as §2

[20] = target: T3, biotin-labeled CD47 extracellular …; test: blocking ELISA, biotin-CD47-ECD on coated SIRPα-hFc; Ab 200 nM
Protocol: as §2

[21] = target: T1, cynomolgus CD47, on CHOK1-cCD47 stable …; test: FACS CHOK1-cCD47; Ab 0.064 nM
Protocol: as §1

[22] = target: T2, human CD47, full length, on transfected …; test: FACS CHOK1-hCD47; Ab 8 nM
Protocol: as §1

[23] = target: T4, His-tagged CD47 recombinant protein, …; test: ELISA on coated CD47-His; Ab 0 nM (background)
[24] = target: T2, human CD47, full length, on transfected …; test: FACS CHOK1-hCD47; Ab 0.32 nM
Protocol: as §1

[25] = target: T4, His-tagged CD47 recombinant protein, …; test: ELISA on coated CD47-His; Ab 2.667 nM
Protocol: as §3

[26] = target: T3, biotin-labeled CD47 extracellular …; test: blocking ELISA, biotin-CD47-ECD on coated SIRPα-hFc; Ab 8 nM
Protocol: as §2

[27] = target: T2, human CD47, full length, on transfected …; test: FACS CHOK1-hCD47; Ab 200 nM
[28] = target: T4, His-tagged CD47 recombinant protein, …; test: ELISA on coated CD47-His; Ab 0.533 nM
Protocol: as §3

[29] = target: T2, human CD47, full length, on transfected …; test: FACS CHOK1-hCD47; Ab 1.6 nM
[30] = target: T2, human CD47, full length, on transfected …; test: FACS CHOK1-hCD47; Ab 0.064 nM
Protocol: as §1

[31] = target: T4, His-tagged CD47 recombinant protein, …; test: ELISA on coated CD47-His; Ab 0.107 nM
[32] = target: T2, human CD47, full length, on transfected …; test: FACS CHOK1-hCD47; Ab 0 nM (background)
Protocol: as §1

| Binder | mean fluorescence intensity [1] | mean fluorescence intensity [2] | mean fluorescence intensity [3] | OD450 nm of CD47 bound to SIRPα [4] | mean fluorescence intensity [5] | mean fluorescence intensity [6] | OD450 nm [7] | OD450 nm of CD47 bound to SIRPα [8] | OD450 nm [9] | mean fluorescence intensity [10] | OD450 nm of CD47 bound to SIRPα [11] | OD450 nm of CD47 bound to SIRPα [12] | OD450 nm [13] | mean fluorescence intensity [14] | mean fluorescence intensity [15] | OD450 nm of CD47 bound to SIRPα [16] | mean fluorescence intensity [17] | OD450 nm [18] | OD450 nm of CD47 bound to SIRPα [19] | OD450 nm of CD47 bound to SIRPα [20] | other results |
| --- | --- | --- | --- | --- | --- | --- | --- | --- | --- | --- | --- | --- | --- | --- | --- | --- | --- | --- | --- | --- | --- |
| B1 | 13200 | 83.5 | 120 | 0.18 | 9790 | 9760 | 0.46 | 1.06 | 2.96 | 4550 | 2.79 | 2.5 | 0.14 | 7400 | 7040 | 0.06 | 422 | 2.89 | 2.91 | 0.06 | mean fluorescence intensity [21]: 1450; mean fluorescence intensity [22]: 7020; OD450 nm [23]: 0.05; mean fluorescence intensity [24]: 1560; OD450 nm [25]: 3.02; OD450 nm of CD47 bound to SIRPα [26]: 0.07; mean fluorescence intensity [27]: 9420; OD450 nm [28]: 2.91; mean fluorescence intensity [29]: 4430; mean fluorescence intensity [30]: 386; OD450 nm [31]: 1.68; mean fluorescence intensity [32]: 22.9 |
| B2 | 12100 | 75.5 | 113 | 0.15 | 8900 | 13900 | 0.69 | 0.77 | 2.91 | 2540 | 2.76 | 2.45 | 0.18 | 7190 | 8870 | 0.06 | 218 | 2.91 | 2.84 | 0.06 | mean fluorescence intensity [21]: 667; mean fluorescence intensity [22]: 8450; OD450 nm [23]: 0.05; mean fluorescence intensity [24]: 1710; OD450 nm [25]: 3.03; OD450 nm of CD47 bound to SIRPα [26]: 0.06; mean fluorescence intensity [27]: 10500; OD450 nm [28]: 2.94; mean fluorescence intensity [29]: 4850; mean fluorescence intensity [30]: 480; OD450 nm [31]: 2.13; mean fluorescence intensity [32]: 21.9 |
